Assay results as given in paper PMC9210341.

Legend:
Assay in all cases: SPR
[1] = target: SARS-CoV-2 Delta variant receptor binding domain (residues 319-541) (SARS-CoV-2 (Delta variant)) (UniProt P0DTC2)
[2] = target: SARS-CoV-2 Beta variant receptor binding domain (residues 319-541) (SARS-CoV-2 (Beta variant)) (UniProt P0DTC2)
[3] = target: equine angiotensin converting enzyme 2 (residues 19-615) (horse (equine))

Row | Substance | fold decrease in affinity against the SARS-CoV-2 PT-RBD [1] [fold] | fold decrease in affinity against the SARS-CoV-2 PT-RBD [2] [fold] | fold lower affinity than hACE2 with the SARS-COV-2 PT-RBD [3] [fold]
1 | equine angiotensin converting enzyme 2 (residues 19-615) (from UniProt A0A9L0TPT7 19-615) (receptor) | 2 | 4.1 | –
2 | SARS-CoV-2 prototype receptor binding domain (residues 319-541) (from UniProt P0DTC2 319-541) (domain or fragment) | – | – | 32.2
